{
  "source": "patent US20230136228A1",
  "about": "(LAMKAP BIO ALPHA, published 2023)",
  "key": {"[1]": {"target": "T1, human CEACAM5 (carcinoembryonic antigen, CEA), cell surface (human, UniProt P06731 35-685)", "T1 construct": "whole, on cells; also called CD66e", "T1 sequence (looked up)": "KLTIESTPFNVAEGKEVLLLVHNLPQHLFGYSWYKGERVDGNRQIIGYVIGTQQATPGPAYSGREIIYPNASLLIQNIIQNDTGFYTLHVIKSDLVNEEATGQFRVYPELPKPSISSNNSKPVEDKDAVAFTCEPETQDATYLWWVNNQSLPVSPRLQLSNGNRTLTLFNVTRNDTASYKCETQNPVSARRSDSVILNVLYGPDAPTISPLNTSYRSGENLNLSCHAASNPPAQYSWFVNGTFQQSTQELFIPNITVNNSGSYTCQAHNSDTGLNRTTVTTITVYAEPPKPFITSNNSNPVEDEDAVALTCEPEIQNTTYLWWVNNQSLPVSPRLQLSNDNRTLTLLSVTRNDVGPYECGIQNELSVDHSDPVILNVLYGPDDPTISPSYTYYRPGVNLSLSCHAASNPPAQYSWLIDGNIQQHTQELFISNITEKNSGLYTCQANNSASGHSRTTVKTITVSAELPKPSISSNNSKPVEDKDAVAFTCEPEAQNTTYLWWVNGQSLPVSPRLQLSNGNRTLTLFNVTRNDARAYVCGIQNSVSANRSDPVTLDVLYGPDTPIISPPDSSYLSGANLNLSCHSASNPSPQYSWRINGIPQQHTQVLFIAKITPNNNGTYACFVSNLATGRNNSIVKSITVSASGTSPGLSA", "assay": "flow cytometry, MKN-45 and/or HPAF-II cells"}, "[2]": {"target": "T2, human CD3ε (human, UniProt P07766 23-207)", "T2 construct": "whole, on cells; Present on cells as part of the CD3/TCR complex; also called CD3 epsilon", "T2 sequence (P07766 23-207)": "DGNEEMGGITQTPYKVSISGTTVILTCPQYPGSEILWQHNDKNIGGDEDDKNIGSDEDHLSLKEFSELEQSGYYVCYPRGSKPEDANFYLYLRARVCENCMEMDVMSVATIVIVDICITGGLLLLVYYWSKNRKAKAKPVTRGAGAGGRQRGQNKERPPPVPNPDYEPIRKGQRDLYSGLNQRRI", "assay": "flow cytometry, HUT-78 cells"}, "[3]": {"target": "T1, human CEACAM5 (carcinoembryonic …)", "assay": "cell-based or functional assay"}, "[4]": {"target": "T2, human CD3ε", "assay": "flow cytometry, primary CD4+ and CD8+ T-cells"}, "[5]": {"target": "T3, shed soluble CEACAM5 (sCEA) (human, UniProt P06731 35-685, limits assumed)", "T3 sequence (looked up)": "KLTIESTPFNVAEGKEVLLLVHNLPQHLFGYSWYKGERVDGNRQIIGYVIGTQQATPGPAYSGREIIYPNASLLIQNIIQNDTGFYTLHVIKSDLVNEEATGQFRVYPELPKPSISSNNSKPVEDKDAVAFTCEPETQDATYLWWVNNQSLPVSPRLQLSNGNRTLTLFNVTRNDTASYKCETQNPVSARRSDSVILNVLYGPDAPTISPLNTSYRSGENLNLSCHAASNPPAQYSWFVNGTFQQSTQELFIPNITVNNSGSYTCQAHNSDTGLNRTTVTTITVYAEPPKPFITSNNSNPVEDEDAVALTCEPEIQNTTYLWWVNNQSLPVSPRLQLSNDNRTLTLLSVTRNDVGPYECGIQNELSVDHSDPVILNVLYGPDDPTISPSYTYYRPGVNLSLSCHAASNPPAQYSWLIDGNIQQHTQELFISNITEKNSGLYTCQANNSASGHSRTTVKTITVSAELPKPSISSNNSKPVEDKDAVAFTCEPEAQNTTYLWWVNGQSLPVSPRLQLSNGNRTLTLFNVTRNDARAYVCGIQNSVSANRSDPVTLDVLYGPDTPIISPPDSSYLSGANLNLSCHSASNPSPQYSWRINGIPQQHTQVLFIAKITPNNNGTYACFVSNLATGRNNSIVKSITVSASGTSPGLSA", "assay": "cell-based or functional assay"}, "[6]": {"target": "T1, human CEACAM5 (carcinoembryonic …)", "assay": "flow cytometry, MKN-45 cells", "excerpt": "Examples of cells that can be used include CEACAM5-positive cell lines such as the gastric adenocarcinoma cell line MKN45 (expressing 155′000 CEACAM5 molecules per cell), or the pancreatic adenocarcinoma cell line HPAF-II (expressing 108′000 CEACAM5 molecules per cell) or the colorectal adenocarcinoma cell line LS174T (expressing 26′000 CEACAM5 molecules per cell) and CEACAM5-negative cell lines, such as the lung carcinoma cell line A549 and the MKN45 CEACAM5-knock out cell line generated by CRISPR-CAS9 methodology. Cell staining and binding assessment can be performed as described above. Binding of the bsAb of the invention at 200 nM, 1000 nM and 5000 nM is 40% and higher compared to binding of TCB2014 (see Table 4 and also FIGS. 11 and 14)."}, "[7]": {"target": "T1, human CEACAM5 (carcinoembryonic …)", "assay": "flow cytometry, CEA positive cells"}},
  "data": [
    {"binder": "AB15L3-1/N (bispecific antibody, human IgG1, kappa, lambda, L234A L235A, Kappa-lambda body, lead optimization wave 1) heavy: EVQLVESGGGLVQPGGSLKLSCAASGFTFNTYAMNWVRQAPGKGLEWVGRIRSKYNNYATYYADSVKDRFTISRDDSKNTAYLQMNSLKTEDTAVYYCVRHGNFGNSYVSWFAYWGQGTLVTVSSASTKGPSVFPLAPSSKSTSGGTAALGCLVKDYFPEPVTVSWNSGALTSGVHTFPAVLQSSGLYSLSSVVTVPSSSLGTQTYICNVNHKPSNTKVDKRVEPKSCDKTHTCPPCPAPEAAGGPSVFLFPPKPKDTLMISRTPEVTCVVVDVSHEDPEVKFNWYVDGVEVHNAKTKPREEQYNSTYRVVSVLTVLHQDWLNGKEYKCKVSNKALAAPIEKTISKAKGQPREPQVYTLPPSREEMTKNQVSLTCLVKGFYPSDIAVEWESNGQPENNYKTTPPVLDSDGSFFLYSKLTVDKSRWQQGNVFSCSVMHEALHNHYTQKSLSLSPG light 1: EIVLTQSPATLSLSPGERATLSCRASQTVNNNLNWYQQKPGQSPRLLIYYASNRATGIPARFSGSGSGTDFTLTISSLEPEDFAVYYCQQFNYHHEHNTFGQGTKVEIKRTVAAPSVFIFPPSDEQLKSGTASVVCLLNNFYPREAKVQWKVDNALQSGNSQESVTEQDSKDSTYSLSSTLTLSKADYEKHKVYACEVTHQGLSSPVTKSFNRGEC light 2: QTVVTQEPSLTVSPGGTVTLTCRSSTGAVTTSNYANWFQQKPGQAPRGLIGGTNKRAPGTPARFSGSLLGGKAALTLSGAQPEDEAEYYCALWYKQRWVFGGGTKLTVLGQPKAAPSVTLFPPSSEELQANKATLVCLISDFYPGAVTVAWKADSSPVKAGVETTTPSKQSNNKYAASSYLSLTPEQWKSHRSYSCQVTHEGSTVEKTVAPTECS", "values": [
      {"measurement": "binding higher than TCB2014 (at 100 nM)", "setting": "[1]", "result": "≥ 40", "unit": "%"},
      {"measurement": "binding result", "setting": "[2]", "result": "binds"}
    ]},
    {"binder": "AB14L3-1/N (bispecific antibody, human IgG1, kappa, lambda, L234A L235A, Kappa-lambda body, lead optimization wave 1) heavy: EVQLVESGGGLVQPGGSLKLSCAASGFTFNTYAMNWVRQAPGKGLEWVGRIRSKYNNYATYYADSVKDRFTISRDDSKNTAYLQMNSLKTEDTAVYYCVRHGNFGNSYVSWFAYWGQGTLVTVSSASTKGPSVFPLAPSSKSTSGGTAALGCLVKDYFPEPVTVSWNSGALTSGVHTFPAVLQSSGLYSLSSVVTVPSSSLGTQTYICNVNHKPSNTKVDKRVEPKSCDKTHTCPPCPAPEAAGGPSVFLFPPKPKDTLMISRTPEVTCVVVDVSHEDPEVKFNWYVDGVEVHNAKTKPREEQYNSTYRVVSVLTVLHQDWLNGKEYKCKVSNKALAAPIEKTISKAKGQPREPQVYTLPPSREEMTKNQVSLTCLVKGFYPSDIAVEWESNGQPENNYKTTPPVLDSDGSFFLYSKLTVDKSRWQQGNVFSCSVMHEALHNHYTQKSLSLSPG light 1: EIVLTQSPATLSLSPGERATLSCRASQSVNSNLNWYQQKPGQAPRLLIYHGSNRATGIPARFSGSGSGTDFTLTISSLEPEDFAVYYCQQFDYFRESNTFGQGTKVEIKRTVAAPSVFIFPPSDEQLKSGTASVVCLLNNFYPREAKVQWKVDNALQSGNSQESVTEQDSKDSTYSLSSTLTLSKADYEKHKVYACEVTHQGLSSPVTKSFNRGEC light 2: QTVVTQEPSLTVSPGGTVTLTCRSSTGAVTTSNYANWFQQKPGQAPRGLIGGTNKRAPGTPARFSGSLLGGKAALTLSGAQPEDEAEYYCALWYKQRWVFGGGTKLTVLGQPKAAPSVTLFPPSSEELQANKATLVCLISDFYPGAVTVAWKADSSPVKAGVETTTPSKQSNNKYAASSYLSLTPEQWKSHRSYSCQVTHEGSTVEKTVAPTECS", "values": [
      {"measurement": "binding higher than TCB2014 (at 100 nM)", "setting": "[1]", "result": "≥ 40", "unit": "%"},
      {"measurement": "binding result", "setting": "[2]", "result": "binds"}
    ]},
    {"binder": "AB54L3-1/N (bispecific antibody, human IgG1, kappa, lambda, L234A L235A, Kappa-lambda body, lead optimization wave 2) heavy: EVQLVESGGGLVQPGGSLKLSCAASGFTFNTYAMNWVRQAPGKGLEWVGRIRSKYNNYATYYADSVKDRFTISRDDSKNTAYLQMNSLKTEDTAVYYCVRHGNFGNSYVSWFAYWGQGTLVTVSSASTKGPSVFPLAPSSKSTSGGTAALGCLVKDYFPEPVTVSWNSGALTSGVHTFPAVLQSSGLYSLSSVVTVPSSSLGTQTYICNVNHKPSNTKVDKRVEPKSCDKTHTCPPCPAPEAAGGPSVFLFPPKPKDTLMISRTPEVTCVVVDVSHEDPEVKFNWYVDGVEVHNAKTKPREEQYNSTYRVVSVLTVLHQDWLNGKEYKCKVSNKALAAPIEKTISKAKGQPREPQVYTLPPSREEMTKNQVSLTCLVKGFYPSDIAVEWESNGQPENNYKTTPPVLDSDGSFFLYSKLTVDKSRWQQGNVFSCSVMHEALHNHYTQKSLSLSPG light 1: EIVLTQSPATLSLSPGERATLSCRASQEVHKNLNWYQQKPGQAPRLLIYHSSNRATGIPARFSGSGSGTDFTLTISSLEPEDFAVYYCQQFNYHHEHNTFGQGTKVEIKRTVAAPSVFIFPPSDEQLKSGTASVVCLLNNFYPREAKVQWKVDNALQSGNSQESVTEQDSKDSTYSLSSTLTLSKADYEKHKVYACEVTHQGLSSPVTKSFNRGEC light 2: QTVVTQEPSLTVSPGGTVTLTCRSSTGAVTTSNYANWFQQKPGQAPRGLIGGTNKRAPGTPARFSGSLLGGKAALTLSGAQPEDEAEYYCALWYKQRWVFGGGTKLTVLGQPKAAPSVTLFPPSSEELQANKATLVCLISDFYPGAVTVAWKADSSPVKAGVETTTPSKQSNNKYAASSYLSLTPEQWKSHRSYSCQVTHEGSTVEKTVAPTECS", "values": [
      {"measurement": "Killing EC50, HPAFII cells (TDCC, LDH release)", "setting": "[3]", "result": 0.1, "unit": "nM"},
      {"measurement": "Killing EC50, LS174T cells (TDCC, LDH release)", "setting": "[3]", "result": 0.13, "unit": "nM"},
      {"measurement": "Killing EC50, MKN45 cells (TDCC, LDH release)", "setting": "[3]", "result": 0.11, "unit": "nM"},
      {"measurement": "binding result", "setting": "[4]", "result": "binds"},
      {"measurement": "EC50 fold change compared to no shed CEA condition, sCEA 0 µg/mL (reference)", "setting": "[5]", "result": 1, "unit": "fold"},
      {"measurement": "EC50 fold change compared to no shed CEA condition, sCEA 0.2 µg/mL", "setting": "[5]", "result": 0.9, "unit": "fold"},
      {"measurement": "EC50 fold change compared to no shed CEA condition, sCEA 1 µg/mL", "setting": "[5]", "result": 4.6, "unit": "fold"},
      {"measurement": "EC50 fold change compared to no shed CEA condition, sCEA 5 µg/mL", "setting": "[5]", "result": 5.7, "unit": "fold"},
      {"measurement": "EC50", "setting": "[6]", "result": 66.4, "unit": "nM"},
      {"measurement": "Top MFI value", "setting": "[6]", "result": 760000, "unit": "MFI"},
      {"measurement": "binding higher than TCB2014 (at 200 nM, 1000 nM and 5000 nM)", "setting": "[6]", "result": "≥ 40", "unit": "%"},
      {"measurement": "binding higher than TCB2014 (at 200 nM)", "setting": "[7]", "result": "≥ 40", "unit": "%"}
    ]}
  ]
}
